From patent US20140348747A1
Where “and” joins values, the source holds several entries; their conditions need not be identical. Equal entries are not always repeated. Where two headings read alike, the source gives them in different places.

Assays:
Settings in all cases: modification not given
V58A = target: T1, V58A
T1 chain: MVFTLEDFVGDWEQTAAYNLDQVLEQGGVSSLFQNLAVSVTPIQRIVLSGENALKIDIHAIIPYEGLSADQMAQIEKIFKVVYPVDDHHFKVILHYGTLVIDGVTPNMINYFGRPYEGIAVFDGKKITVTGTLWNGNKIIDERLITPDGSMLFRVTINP

NLpoly 11S (12-A51T) = target: T2, NLpoly 11S (12-A51T)
T2 chain: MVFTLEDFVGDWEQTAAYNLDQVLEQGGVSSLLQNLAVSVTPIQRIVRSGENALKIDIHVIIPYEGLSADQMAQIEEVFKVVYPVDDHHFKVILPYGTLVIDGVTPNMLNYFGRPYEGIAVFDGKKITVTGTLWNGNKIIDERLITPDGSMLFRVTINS

H93P = target: T3, H93P
T3 chain: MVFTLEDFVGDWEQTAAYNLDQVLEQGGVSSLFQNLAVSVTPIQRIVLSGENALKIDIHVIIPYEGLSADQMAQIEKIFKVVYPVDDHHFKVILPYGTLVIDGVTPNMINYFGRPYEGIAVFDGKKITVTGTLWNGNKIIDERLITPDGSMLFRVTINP

VA = target: VA
[1] = target: T4, wild-type non-luminescent polypeptide (WT fragment of residues 1-156 of NanoLuc)
T4 chain: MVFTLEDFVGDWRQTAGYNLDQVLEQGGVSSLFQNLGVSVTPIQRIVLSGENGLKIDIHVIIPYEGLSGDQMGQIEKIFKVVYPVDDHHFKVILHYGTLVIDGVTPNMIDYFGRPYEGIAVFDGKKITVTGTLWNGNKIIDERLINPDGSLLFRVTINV

F31L+H93P = target: T5, F31L+H93P
T5 chain: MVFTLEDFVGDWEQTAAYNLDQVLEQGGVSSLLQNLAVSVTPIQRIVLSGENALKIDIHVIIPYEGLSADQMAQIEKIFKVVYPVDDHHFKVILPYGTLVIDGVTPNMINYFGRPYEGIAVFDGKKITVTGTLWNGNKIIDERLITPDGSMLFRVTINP

5P+V = target: 5P+V
VT = target: VT
F31L = target: T6, F31L
T6 chain: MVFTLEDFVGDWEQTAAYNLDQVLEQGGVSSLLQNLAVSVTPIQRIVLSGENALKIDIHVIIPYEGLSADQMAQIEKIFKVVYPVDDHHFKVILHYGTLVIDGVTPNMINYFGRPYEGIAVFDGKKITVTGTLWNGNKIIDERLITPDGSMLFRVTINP

P157S = target: T7, P157S
T7 chain: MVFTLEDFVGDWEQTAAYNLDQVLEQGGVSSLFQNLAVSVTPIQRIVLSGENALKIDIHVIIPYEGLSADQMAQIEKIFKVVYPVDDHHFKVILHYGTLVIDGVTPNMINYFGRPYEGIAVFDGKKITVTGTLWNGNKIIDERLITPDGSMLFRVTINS

5P+VT = target: 5P+VT
L46R = target: T8, L46R
T8 chain: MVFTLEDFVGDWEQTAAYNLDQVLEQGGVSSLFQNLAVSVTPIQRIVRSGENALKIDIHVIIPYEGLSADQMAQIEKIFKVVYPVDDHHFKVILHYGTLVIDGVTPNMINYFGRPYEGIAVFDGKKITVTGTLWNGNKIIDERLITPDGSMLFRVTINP

VTGWR = target: T9, VTGWR
T9 chain: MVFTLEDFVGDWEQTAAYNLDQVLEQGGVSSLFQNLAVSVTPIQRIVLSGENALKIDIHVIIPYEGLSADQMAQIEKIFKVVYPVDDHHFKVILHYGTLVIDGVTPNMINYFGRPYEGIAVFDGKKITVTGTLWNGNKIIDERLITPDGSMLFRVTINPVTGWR

AA = target: AA
A51T = target: T10, A51T
T10 chain: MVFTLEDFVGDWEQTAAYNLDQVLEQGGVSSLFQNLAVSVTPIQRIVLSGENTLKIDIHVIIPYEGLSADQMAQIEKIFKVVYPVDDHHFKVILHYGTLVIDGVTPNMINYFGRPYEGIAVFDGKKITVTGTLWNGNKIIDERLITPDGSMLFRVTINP

5P+VTG = target: 5P+VTG
P157H = target: T11, P157H
T11 chain: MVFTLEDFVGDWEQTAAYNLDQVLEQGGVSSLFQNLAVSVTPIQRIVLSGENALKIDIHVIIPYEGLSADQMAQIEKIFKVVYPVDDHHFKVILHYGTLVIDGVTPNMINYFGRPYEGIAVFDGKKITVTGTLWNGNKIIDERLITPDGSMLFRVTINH

VTGW = target: T12, VTGW
T12 chain: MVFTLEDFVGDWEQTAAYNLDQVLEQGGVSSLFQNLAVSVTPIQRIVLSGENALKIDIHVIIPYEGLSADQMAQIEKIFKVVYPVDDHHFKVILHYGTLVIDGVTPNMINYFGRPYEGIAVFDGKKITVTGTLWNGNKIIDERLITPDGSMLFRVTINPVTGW

[2] = target: T4, wild-type non-luminescent polypeptide …
[3] = target: T4, wild-type non-luminescent polypeptide …
H57R = target: T13, H57R
T13 chain: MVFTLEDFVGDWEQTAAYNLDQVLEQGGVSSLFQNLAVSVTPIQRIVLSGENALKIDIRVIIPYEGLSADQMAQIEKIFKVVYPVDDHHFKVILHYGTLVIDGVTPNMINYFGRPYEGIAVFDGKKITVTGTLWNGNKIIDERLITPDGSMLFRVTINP

D2 = target: T14, D2
T14 chain: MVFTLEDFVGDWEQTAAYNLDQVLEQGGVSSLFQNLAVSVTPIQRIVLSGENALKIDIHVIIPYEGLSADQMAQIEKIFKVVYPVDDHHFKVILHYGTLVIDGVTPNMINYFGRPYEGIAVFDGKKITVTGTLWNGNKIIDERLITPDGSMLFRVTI

B1: NLpep78 (peptide)
chain: NVSGWRLFKKISN
V58A
  Kd: 0.0152 µM
NLpoly 11S (12-A51T)
  Kd: 26 µM
H93P
  Kd: 0.024 µM
VA
  Kd: 0.0146 µM
[1]
  Kd: 0.341 µM and 1.05 µM
F31L+H93P
  Kd: 0.0172 µM
5P+V
  Kd: 0.0249 µM
VT
  Kd: 0.0131 µM
F31L
  Kd: 0.0148 µM
P157S
  Kd: 0.0152 µM
5P+VT
  Kd: 0.0254 µM
L46R
  Kd: 0.0184 µM
VTGWR
  Kd: 0.0133 µM
AA
  Kd: 0.0113 µM
A51T
  Kd: 0.0188 µM
5P+VTG
  Kd: 0.026 µM
P157H
  Kd: 0.0179 µM
VTGW
  Kd: 0.013 µM
[2]
  Kd: 0.784 µM
[3]
  Kd: 1750 µM
H57R
  Kd: 0.0141 µM
D2
  Kd: 0.0102 µM
